Reference: publication PMC10397247
Read-outs that look alike come from different tables or passages of the source. Blank lines part the entries; values can stand above or below the binder they belong to.

Columns and labels:
4H796-bH = molecular target: T1, 4H796-bH; experiment: two-hybrid library CCNG1;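 also: natural log of median RNA to DNA barcode read ratio; higher means stronger binding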
T1 chain: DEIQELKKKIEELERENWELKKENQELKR

4H3041-bH = molecular target: T2, 4H3041-bH; experiment: two-hybrid library CCNG1;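 also: natural log of median RNA to DNA barcode read ratio; higher means stronger binding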
T2 chain: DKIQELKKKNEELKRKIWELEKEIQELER

4H2585-bH = molecular target: T3, 4H2585-bH; experiment: two-hybrid library CCNG1;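 also: natural log of median RNA to DNA barcode read ratio; higher means stronger binding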
T3 chain: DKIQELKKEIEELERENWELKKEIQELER

4H932-bH = molecular target: T4, 4H932-bH; experiment: two-hybrid library CCNG1;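 also: natural log of median RNA to DNA barcode read ratio; higher means stronger binding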
T4 chain: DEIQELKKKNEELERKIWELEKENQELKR

4H3364-bH = molecular target: T5, 4H3364-bH; experiment: two-hybrid library CCNG1;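 also: natural log of median RNA to DNA barcode read ratio; higher means stronger binding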
T5 chain: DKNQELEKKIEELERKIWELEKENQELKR

4H349-bH = molecular target: T6, 4H349-bH; experiment: two-hybrid library CCNG1;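 also: natural log of median RNA to DNA barcode read ratio; higher means stronger binding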
T6 chain: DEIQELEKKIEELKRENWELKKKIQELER

4H3381-bH = molecular target: T7, 4H3381-bH; experiment: two-hybrid library CCNG1
T7 chain: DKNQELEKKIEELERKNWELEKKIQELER

4H264-bH = molecular target: T8, 4H264-bH; experiment: two-hybrid library CCNG1
T8 chain: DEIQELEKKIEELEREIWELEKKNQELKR

4H56-bH = molecular target: T9, 4H56-bH; experiment: two-hybrid library CCNG1
T9 chain: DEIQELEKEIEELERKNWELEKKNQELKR

4H2518-bH = molecular target: T10, 4H2518-bH; experiment: two-hybrid library CCNG1
T10 chain: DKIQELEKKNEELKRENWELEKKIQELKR

4H3297-bH = molecular target: T11, 4H3297-bH; experiment: two-hybrid library CCNG1
T11 chain: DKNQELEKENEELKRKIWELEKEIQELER

4H2760-bH = molecular target: T12, 4H2760-bH; experiment: two-hybrid library CCNG1
T12 chain: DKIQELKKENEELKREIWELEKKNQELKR

4H3974-bA = molecular target: T13, 4H3974-bA; experiment: two-hybrid library CCNG1
T13 chain: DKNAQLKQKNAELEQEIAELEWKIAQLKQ

4H949-bH = molecular target: T14, 4H949-bH; experiment: two-hybrid library CCNG1
T14 chain: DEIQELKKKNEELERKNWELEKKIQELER

4H717-bA = molecular target: T15, 4H717-bA; experiment: two-hybrid library CCNG1
T15 chain: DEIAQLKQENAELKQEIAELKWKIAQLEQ

4H2931-bH = molecular target: T16, 4H2931-bH; experiment: two-hybrid library CCNG1
T16 chain: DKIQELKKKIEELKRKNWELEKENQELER

4H584-bH = molecular target: T17, 4H584-bH; experiment: two-hybrid library CCNG1
T17 chain: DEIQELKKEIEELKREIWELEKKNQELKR

4H730-bH = molecular target: T18, 4H730-bH; experiment: two-hybrid library CCNG1
T18 chain: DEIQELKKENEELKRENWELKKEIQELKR

4H2859-bH = molecular target: T19, 4H2859-bH; experiment: two-hybrid library CCNG1
T19 chain: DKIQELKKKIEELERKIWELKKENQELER

4H918-bN = molecular target: T20, 4H918-bN; experiment: two-hybrid library CCNG1
T20 chain: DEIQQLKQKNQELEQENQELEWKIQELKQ

O14-bA = molecular target: T21, O14-bA; experiment: two-hybrid library CCNG1
T21 chain: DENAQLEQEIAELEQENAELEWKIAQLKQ

4H967-bN = molecular target: T22, 4H967-bN; experiment: two-hybrid library CCNG1
T22 chain: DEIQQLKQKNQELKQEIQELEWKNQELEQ

4H968-bN = molecular target: T23, 4H968-bN; experiment: two-hybrid library CCNG1
T23 chain: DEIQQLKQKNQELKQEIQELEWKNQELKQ

4H953-bN = molecular target: T24, 4H953-bN; experiment: two-hybrid library CCNG1
T24 chain: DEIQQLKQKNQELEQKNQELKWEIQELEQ

O5-AA = molecular target: T25, O5-AA; experiment: two-hybrid library CCmax; settings: mean of both orientations
T25 chain: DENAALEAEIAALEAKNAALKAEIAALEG

O2-AA = molecular target: T26, O2-AA; experiment: two-hybrid library CCmax
T26 chain: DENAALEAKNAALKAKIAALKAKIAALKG

O6-AA = molecular target: T27, O6-AA; experiment: two-hybrid library CCmax; settings: mean of both orientations
T27 chain: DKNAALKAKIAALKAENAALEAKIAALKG

O14-AA = molecular target: T28, O14-AA; experiment: two-hybrid library CCmax
T28 chain: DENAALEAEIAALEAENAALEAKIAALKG

O3-AA = molecular target: T29, O3-AA; experiment: two-hybrid library CCmax; settings: mean of both orientations
T29 chain: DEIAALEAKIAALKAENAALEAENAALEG

O7-AA = molecular target: T30, O7-AA; experiment: two-hybrid library CCmax; settings: mean of both orientations
T30 chain: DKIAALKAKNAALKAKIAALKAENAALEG

P10-AA = molecular target: T31, P10-AA; experiment: two-hybrid library CCmax; settings: mean of both orientations
T31 chain: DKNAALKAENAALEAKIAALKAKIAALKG

P9-AA = molecular target: T32, P9-AA; experiment: two-hybrid library CCmax; settings: mean of both orientations
T32 chain: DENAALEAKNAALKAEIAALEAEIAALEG

O4-AA = molecular target: T33, O4-AA; experiment: two-hybrid library CCmax; settings: mean of both orientations
T33 chain: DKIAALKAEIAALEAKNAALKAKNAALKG

O8-AA = molecular target: T34, O8-AA; experiment: two-hybrid library CCmax; settings: mean of both orientations
T34 chain: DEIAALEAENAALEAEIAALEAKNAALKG

P5A-bS = molecular target: T35, P5A-bS; experiment: two-hybrid library CCNG1
T35 chain: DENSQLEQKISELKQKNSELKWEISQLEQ

P7A-bS = molecular target: T36, P7A-bS; experiment: two-hybrid library CCNG1
T36 chain: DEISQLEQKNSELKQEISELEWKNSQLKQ

P9A-bS = molecular target: T37, P9A-bS; experiment: two-hybrid library CCNG1
T37 chain: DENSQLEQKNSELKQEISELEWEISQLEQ

P6A-bS = molecular target: T38, P6A-bS; experiment: two-hybrid library CCNG1
T38 chain: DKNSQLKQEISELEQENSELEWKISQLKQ

P8A-bS = molecular target: T39, P8A-bS; experiment: two-hybrid library CCNG1
T39 chain: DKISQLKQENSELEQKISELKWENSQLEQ

P6bHq = molecular target: T40, P6bHq; experiment: two-hybrid library CCNG1
T40 chain: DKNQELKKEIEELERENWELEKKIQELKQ

O11-AA = molecular target: T41, O11-AA; experiment: two-hybrid library CCmax
T41 chain: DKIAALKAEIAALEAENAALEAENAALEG

O13-AA = molecular target: T42, O13-AA; experiment: two-hybrid library CCmax
T42 chain: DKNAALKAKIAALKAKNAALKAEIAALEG

P9A-bP = molecular target: T43, P9A-bP; experiment: two-hybrid library CCNG1
T43 chain: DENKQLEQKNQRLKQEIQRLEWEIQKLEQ

P7A-bP = molecular target: T44, P7A-bP; experiment: two-hybrid library CCNG1
T44 chain: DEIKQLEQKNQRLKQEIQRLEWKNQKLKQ

P5A-bP = molecular target: T45, P5A-bP; experiment: two-hybrid library CCNG1
T45 chain: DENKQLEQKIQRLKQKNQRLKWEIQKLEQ

P6A-bP = molecular target: T46, P6A-bP; experiment: two-hybrid library CCNG1
T46 chain: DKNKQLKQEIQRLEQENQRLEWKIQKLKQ

P8A-bP = molecular target: T47, P8A-bP; experiment: two-hybrid library CCNG1
T47 chain: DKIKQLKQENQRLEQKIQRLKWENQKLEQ

Binder: DKIQELEKKNEELKRENWELEKKIQELKR [4H2518-bH]
- interaction score (4H796-bH): 0.388
- interaction score (4H3041-bH): 0.765
- interaction score (4H2585-bH): 0.0674
- interaction score (4H932-bH): 0.604
- interaction score (4H3364-bH): 0.178
- interaction score (4H349-bH): -1.75
- interaction score (4H3381-bH): 0.567
- interaction score (4H264-bH): -1.77
- interaction score (4H56-bH): -1.35
- interaction score (4H2518-bH): 1
- interaction score (4H3297-bH): 0.251
- interaction score (4H2760-bH): -0.186
- interaction score (4H3974-bA): 0.345
- interaction score (4H949-bH): 0.12
- interaction score (4H717-bA): -0.768
- interaction score (4H2931-bH): -0.584
- interaction score (4H584-bH): 0.647
- interaction score (4H730-bH): 0.0916
- interaction score (4H2859-bH): -0.0624

Binder: DEIQQLKQKNQELEQENQELEWKIQELKQ [4H918-bN]
- interaction score (4H918-bN): -0.715
- interaction score (O14-bA): -0.665
- interaction score (4H967-bN): -0.522
- interaction score (4H968-bN): -0.218
- interaction score (4H953-bN): 0.301

Binder: DENAALEAKNAALKAKIAALKAKIAALKG [O2-AA]
- interaction score (O5-AA): -1.37
- interaction score (O2-AA): -1.61
- interaction score (O6-AA): -1.77
- interaction score (O3-AA): -1.26
- interaction score (O7-AA): -1.5
- interaction score (P10-AA): 1.33
- interaction score (P9-AA): 0.934
- interaction score (O4-AA): -1.55
- interaction score (O8-AA): 0.633

Binder: DENKQLEQKIQRLKQKNQRLKWEIQKLEQ [P5A-bP]
- interaction score (P9A-bP): -1.44
- interaction score (P7A-bP): -1.06
- interaction score (P5A-bP): -1.57
- interaction score (P6A-bP): 1.7
- interaction score (P8A-bP): -0.516

Now from value to binder:

- interaction score (O5-AA): 1.3
- interaction score (O2-AA; mean of both orientations): 0.393
- interaction score (O6-AA): 1.44
- interaction score (O14-AA): -1.46
- interaction score (O3-AA): -1.47
- interaction score (O7-AA): 1.84
- interaction score (P10-AA): -0.458
- interaction score (P9-AA): -1.61
- interaction score (O4-AA): -0.13
- interaction score (O8-AA): -0.992
Binder: DENAALEAEIAALEAENAALEAKIAALKG [O14-AA]

- interaction score (P5A-bS): -0.799
- interaction score (P7A-bS): -1.3
- interaction score (P9A-bS): -0.973
- interaction score (P6A-bS): 0.815
- interaction score (P8A-bS): -1.1
- interaction score (P6bHq): 1.33
Binder: DENSQLEQKISELKQKNSELKWEISQLEQ [P5A-bS]

- interaction score (O5-AA): -1.47
- interaction score (O11-AA): -0.752
- interaction score (O13-AA; mean of both orientations): -1.08
- interaction score (O2-AA; mean of both orientations): -0.959
- interaction score (O6-AA): -0.7
- interaction score (O14-AA; mean of both orientations): -1.2
- interaction score (O3-AA): -0.899
- interaction score (O7-AA): -0.673
- interaction score (P10-AA): -0.539
- interaction score (P9-AA): -1.22
- interaction score (O4-AA): 1.9
- interaction score (O8-AA): -1.67
Binder: DKIAALKAEIAALEAENAALEAENAALEG [O11-AA]

- interaction score (O5-AA): -0.257
- interaction score (O13-AA): -1.69
- interaction score (O2-AA; mean of both orientations): -1.56
- interaction score (O6-AA): 1.5
- interaction score (O14-AA; mean of both orientations): 2.19
- interaction score (O3-AA): -1.86
- interaction score (O7-AA): -1.54
- interaction score (P10-AA): -1.54
- interaction score (P9-AA): -1.16
- interaction score (O4-AA): -1.61
- interaction score (O8-AA): 1.18
Binder: DKNAALKAKIAALKAKNAALKAEIAALEG [O13-AA]
